Results on 7 molecules are retold here after patent publication US20210221885A1 (NANJING LEADS BIOLABS, published 2021).

In general, EC50 (read off the curve) refers to the midpoint of the concentration-response curve. Lower therefore signals higher potency in that assay. By IC50 is commonly meant the concentration that inhibits the measured activity by half. A word on the Kd: it is the free concentration of one partner at which half of the binding sites on the other are occupied at equilibrium, for simple one-to-one binding. Read a low Kd as tighter binding. The term koff denotes the first-order rate constant of dissociation. Lower therefore signals a long-lived complex. One may read the kon as the rate constant with which the complex forms. As a reminder, the EC50 is the concentration giving half of the maximal effect. Lower therefore signals higher potency in that assay.

The target of assay [1] is T1, Human TIM-3 protein (Acrobiosystems, Cat#TM3-H5229) (human, UniProt Q8TDQ0 22-200).
T1 construct: Bought protein; also called recombinant human TIM-3; TIM-3 recombinant protein
T1 sequence (looked up): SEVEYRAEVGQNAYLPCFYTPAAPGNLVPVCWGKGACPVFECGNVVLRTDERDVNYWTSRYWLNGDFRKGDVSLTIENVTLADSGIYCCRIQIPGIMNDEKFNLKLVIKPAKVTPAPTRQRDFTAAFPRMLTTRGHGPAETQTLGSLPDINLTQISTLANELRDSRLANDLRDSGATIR
The assay is described as follows: ELISA, human TIM-3 coated at 1 ug/mL, detection with peroxidase-labeled anti-human IgG, OD450-620. The protocol:
(§1) An ELISA assay was used for determination of the relative binding activity of antibodies to recombinant human TIM-3.
(§2) Human TIM-3 protein (Acrobiosystems, Cat#TM3-H5229) in carbonate buffer (pH 9.6, 1.59 g sodium carbonate and 2.93 g sodium bicarbonate dissolved in 1L water) was immobilized onto 96-well plates at 1μg/mL by incubation overnight at 4° C. The plates were then blocked with 1% BSA in PBS for one hour at 37° C. After blocking, the plates were washed three times with PBST (PBS containing 0.05% Tween20). […] After binding, the plates were washed three times with PBST, incubated for one hour at 37° C. with peroxidase-labeled donkey anti-human IgG (Jackson Immuno Research) diluted 1/15,000 in binding buffer, washed again, developed with TMB and stopped with 1M H₂SO₄.
(§3) The absorbance at 450 nm-620 nm was determined.
In general terms: An ELISA detects its analyte on a solid surface through an enzyme-linked reagent.

The target in assay [2] is T2, Eu3+ cryptate labeled TIM3 (Cisbio kit, cat# 63ADK000CTLPEB) (human, UniProt Q8TDQ0 22-202, limits assumed, Eu3+ cryptate label).
T2 construct: Kit reagent; construct not described; also called Tim3-EuK protein; Tim3-EuK
T2 sequence (looked up): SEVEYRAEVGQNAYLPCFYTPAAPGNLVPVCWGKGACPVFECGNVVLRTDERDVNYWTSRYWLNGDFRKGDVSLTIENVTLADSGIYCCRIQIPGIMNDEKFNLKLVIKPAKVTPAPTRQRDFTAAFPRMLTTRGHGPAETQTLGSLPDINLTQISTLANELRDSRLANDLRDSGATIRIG
The assay is described as follows: HTRF blocking assay (Cisbio kit), antibody added to a mixture of Tim3-EuK and Tag-Gal9; blocked ligand galectin-9; the unit is that of the concentration axis. The protocol:
The resultant mixture was incubated for 1 h at room temperature and then the fluorescence emission was read.

Assay [3] concerns the target T1, Human TIM-3 protein (Acrobiosystems, …). Description: SPR, Biacore T200; antibody captured on anti-human IgG (Fc), human TIM-3 injected at 1.56-50 nM; 1:1 Langmuir fit. How it is done:
The kinetic binding activity of anti-TIM-3 antibodies to human TIM-3 (Acrobiosystems, Cat#TM3-H5229) was measured by surface plasmon resonance using a Biacore® T200 system (Biacore, GE Healthcare).
Approximately 6800 RU of Anti-Human IgG (Fc) antibody (GE Catalog # BR-1008-39) was immobilized via amine coupling chemistry onto a CMS sensor chip. […] HBS-EP+ buffer was used as the running buffer. Varying concentrations of human TIM-3 protein, ranging from 1.56 nM to 50 nM, were injected over the antibody surfaces. Following each injection cycle, the CMS chip surface was regenerated using injection of 3M magnesium chloride solution. Background subtraction binding sensorgrams were used for analyzing the rate of association Ka and dissociation Kd, and the equilibrium dissociation constant KD. The resulting data sets were fitted with a 1:1 Langmuir Binding Model using the Biacore T200 evaluation software.

Assay [4] has as its target T3, Human TIM-1 (Sino biological, Cat#11051-HNCH) (human, UniProt Q96D42 21-295, limits assumed).
T3 construct: Bought protein; construct not described
T3 sequence (looked up): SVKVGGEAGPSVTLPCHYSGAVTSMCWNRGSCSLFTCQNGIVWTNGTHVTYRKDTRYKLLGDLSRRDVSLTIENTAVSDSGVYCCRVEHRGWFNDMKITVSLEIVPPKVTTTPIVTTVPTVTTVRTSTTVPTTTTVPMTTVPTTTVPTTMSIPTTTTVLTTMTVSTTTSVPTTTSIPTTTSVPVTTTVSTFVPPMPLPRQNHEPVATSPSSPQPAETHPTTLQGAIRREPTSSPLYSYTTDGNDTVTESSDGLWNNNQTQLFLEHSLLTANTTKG
Description: ELISA, human TIM-1 coated, serially diluted antibody. The protocol:
(§4) After blocking, the plates were washed three times with PBST (PBS containing 0.05% Tween20). […] After binding, the plates were washed three times with PBST, incubated for one hour at 37° C. with peroxidase-labeled donkey anti-human IgG (Jackson Immuno Research) diluted 1/15,000 in binding buffer, washed again, developed with TMB and stopped with 1M H₂SO₄.
as §3

Assay [5] concerns the target T4, Human TIM-4 (Sino biological, Cat#12161-H08H) (human, UniProt Q96H15 25-315).
T4 construct: Bought protein; construct not described
T4 sequence (looked up): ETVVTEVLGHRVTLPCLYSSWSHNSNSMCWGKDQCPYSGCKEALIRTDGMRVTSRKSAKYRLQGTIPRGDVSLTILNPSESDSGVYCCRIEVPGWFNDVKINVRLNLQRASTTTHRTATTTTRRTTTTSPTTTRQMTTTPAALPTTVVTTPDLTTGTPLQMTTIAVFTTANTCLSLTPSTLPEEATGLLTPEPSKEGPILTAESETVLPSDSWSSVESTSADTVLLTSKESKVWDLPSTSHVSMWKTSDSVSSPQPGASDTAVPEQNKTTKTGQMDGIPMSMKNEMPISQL
Description: ELISA, human TIM-4 coated, serially diluted antibody. The protocol:
as §4, §3

Assay [6] deals with T1, Human TIM-3 protein (Acrobiosystems, …). The assay is described as follows: ELISA, human TIM-3 coated at 1 ug/mL, detection with peroxidase-labeled anti-human IgG, OD450-620; the unit is that of the concentration axis. The protocol: as §1, §2, §3
In assay [7] the target is C1q (Calbiochem, Cat#204876) (UniProt P02745 23-245; P02746 28-253; P02747 29-245). The assay is described as follows: ELISA, antibody coated, C1q added, anti-C1q-HRP detection.
Sequence of C1q (Calbiochem, Cat#204876) (P02745 23-245, chain 1 of 3): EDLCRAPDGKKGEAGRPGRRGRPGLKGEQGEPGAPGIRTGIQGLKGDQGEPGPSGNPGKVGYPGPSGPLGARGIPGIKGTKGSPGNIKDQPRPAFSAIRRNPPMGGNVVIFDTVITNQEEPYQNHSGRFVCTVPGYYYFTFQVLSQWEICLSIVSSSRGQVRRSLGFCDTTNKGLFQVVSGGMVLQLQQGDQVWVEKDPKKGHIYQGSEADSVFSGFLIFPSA
Sequence of C1q (Calbiochem, Cat#204876) (P02746 28-253, chain 2 of 3): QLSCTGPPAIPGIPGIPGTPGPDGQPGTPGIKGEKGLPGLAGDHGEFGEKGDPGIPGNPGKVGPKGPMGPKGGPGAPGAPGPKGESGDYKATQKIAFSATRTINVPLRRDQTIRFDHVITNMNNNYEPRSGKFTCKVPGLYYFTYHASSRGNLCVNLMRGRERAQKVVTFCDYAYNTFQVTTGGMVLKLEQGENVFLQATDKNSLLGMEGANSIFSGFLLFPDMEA
Sequence of C1q (Calbiochem, Cat#204876) (P02747 29-245, chain 3 of 3): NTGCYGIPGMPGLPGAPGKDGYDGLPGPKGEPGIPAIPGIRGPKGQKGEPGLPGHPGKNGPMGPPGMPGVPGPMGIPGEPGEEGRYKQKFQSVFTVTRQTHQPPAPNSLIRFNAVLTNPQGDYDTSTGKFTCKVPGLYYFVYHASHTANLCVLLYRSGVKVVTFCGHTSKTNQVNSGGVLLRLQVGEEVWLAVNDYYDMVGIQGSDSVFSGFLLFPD
Assay [8] has as its target T5, human TIM-3 stably expressed on CHO-K1 cells (human, UniProt Q8TDQ0 22-301).
T5 construct: whole, on cells; also called CHO-K1-TIM-3; cell surface TIM-3
T5 sequence (looked up): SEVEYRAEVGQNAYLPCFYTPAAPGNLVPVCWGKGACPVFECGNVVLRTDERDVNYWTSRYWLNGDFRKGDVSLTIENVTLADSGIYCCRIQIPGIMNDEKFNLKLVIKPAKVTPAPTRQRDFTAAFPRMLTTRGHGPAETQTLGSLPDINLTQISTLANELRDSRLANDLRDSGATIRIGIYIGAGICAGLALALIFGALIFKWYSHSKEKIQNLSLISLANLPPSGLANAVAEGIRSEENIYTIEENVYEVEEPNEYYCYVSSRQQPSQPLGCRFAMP
Description: flow cytometry on CHO-K1-TIM-3 cells, detection with PE anti-human IgG Fc, MFI; the unit is that of the concentration axis. The protocol: Anti-TIM-3 antibodies were tested for their binding ability to human TIM-3 stably expressed on CHO-K1 cells. A Chinese hamster ovary epithelial CHO-K1 cell line (ATCC, cat# CCL-61) was maintained in F-12K medium containing 10% FBS in a humidified incubator with 5% CO₂ at 37° C. Polyethylenimine (MW25K, 23966-2, Polyscience) was diluted to 1 mg/mL, and added to and incubated with pcDNA3.1 vector containing TIM-3 cDNA (NP_116171.3) at 37° C. for 10 mins. The mixture was added to and incubated with cell culture for 3hrs for DNA transfection.
The anti-TIM-3 antibodies were serially diluted in PBS buffer with 0.5% BSA. The antibodies were added to and incubated with CHO-K1-TIM-3 cells at 4° C. for 30min. The cells were pelleted (3 minutes, 600×g), washed once using PBS buffer with 0.5% BSA and re-pelleted. Then, the cells were incubated with a PE conjugated AffiniPure Goat Anti-human IgG, Fcγ Fragment Specific (Jackson ImmunoResearch Cat#109-116-098) diluted at 1:100 at 4 ° C. for 30mins. Cells were washed twice as described above, resuspended in PBS buffer. The cells were then sent to the […] flow cytometer (BD Bioscience) for binding activity analysis. The EC₅₀ values were calculated.

Changes are numbered by the printed parent chain.

B1: anti-TIM-3 antibody TIM3-4G7 (antibody, human IgG4 S228P, kappa, V domains shown)
VH: EVQLVETGGGLVQPGGSLRLSCAASGFTFSSYAMSWVRQAPGKGLEWVSGISGSGGSTYYADSVKGRFTTSRDNSENTLYLQMNSLRAEDTAVYYCAGSYYDDAFDIWGQGTLVTVSS
VL: ETTLTQSPATLSLSPGDTATLSCRASQSVTKDLVAWYQQRPGQAPRLLLYGASSRATGIPDRFSGSGSGTDFTLTISRLEPEDFAVYYCQQYGRSPLTFGGGTKVEIKR
notes: Full-length IgG
Take B1: the half-maximal effective concentration (EC50 (read off the curve)) in assay [1] lay in the range of 2 to 3 nM. Further, the IC50 in assay [2] turned out to be 4.73 nM.

B2: anti-TIM-3 antibody TIM3-6.11 (antibody, human IgG1, lambda, L234A L235A, V domains shown)
VH: QVQLVQSGAEVKKPGSSVKVSCKASGGTFSSYTIYWVRQAPGQGLEWMGSIIPILGTANYAQKFQGRVTITADESTSTAYMELSSLRSEDTAVYYCASASHTIWGQGTLVTVSS
VL: QAVVTQEPSLTVSPGGTVTLTCASSTGAVTSGYTPNWFQQRPGQAPRALIYTTSNRHSWTPARFSGSLLGGKAALTLSGVQPEDEADYYCLLYYGGAWVFGGGTKLTVLG
Turning to B2, in assay [3], the Kd was determined as 1.5 nM, the koff is 0.000344 s⁻¹ and the kon is 230000 M⁻¹ s⁻¹.

B3: anti-TIM-3 antibody TIM3-6 (antibody, human IgG4 S228P, lambda, V domains shown)
VH: B2 VH with Y35S, S50R, Q106K
VL: B2 VL with T34S
notes: Full-length IgG expressed in CHO-S cells
For B3, the binding result in assay [4] and in assay [5] was “no binding” in each case. Moreover, the EC50 in assay [6] was 9.24 nM. The 50% inhibitory concentration (IC50) in assay [2] turned out to be 1.88 nM.

B4: anti-TIM-3 antibody TIM3-6.10 (antibody, human IgG1, lambda, L234A L235A, V domains shown)
VH: B2 VH
VL: B2 VL with Y33N
In assay [3], B4 returned a Kd of 2.05 nM, an off-rate constant (koff) of 0.000415 s⁻¹ and an on-rate constant (kon) of 202000 M⁻¹ s⁻¹.

B5: anti-TIM-3 antibody TIM3-6.12 (antibody, human IgG1, lambda, L234A L235A)
heavy: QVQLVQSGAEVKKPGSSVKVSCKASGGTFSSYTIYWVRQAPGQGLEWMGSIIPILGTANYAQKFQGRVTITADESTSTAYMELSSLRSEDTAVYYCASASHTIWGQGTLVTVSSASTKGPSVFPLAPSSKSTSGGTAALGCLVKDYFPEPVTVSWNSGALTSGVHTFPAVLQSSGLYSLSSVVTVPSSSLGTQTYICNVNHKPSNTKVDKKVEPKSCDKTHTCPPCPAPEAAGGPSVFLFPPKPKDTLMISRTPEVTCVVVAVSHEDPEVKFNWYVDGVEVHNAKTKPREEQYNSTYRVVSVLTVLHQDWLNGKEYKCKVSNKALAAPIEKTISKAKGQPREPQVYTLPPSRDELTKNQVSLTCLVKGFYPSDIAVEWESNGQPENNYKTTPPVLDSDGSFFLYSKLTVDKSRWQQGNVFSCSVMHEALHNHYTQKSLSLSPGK
light: QAVVTQEPSLTVSPGGTVTLTCASSTGAVTSGYTPNWFQQRPGQAPRALIYTTNNRHSWTPARFSGSLLGGKAALTLSGVQPEDEADYYCLLYYGGAWVFGGGTKLTVLGQPKAAPSVTLFPPSSEELQANKATLVCLISDFYPGAVTVAWKADSSPVKAGVETTTPSKQSNNKYAASSYLSLTPEQWKSHRSYSCQVTHEGSTVEKTVAPTEC
notes: In the internalization assay the antibody carried pHAb amine reactive dye
With B5, in assay [7], the binding result was “no binding”. Further, in assay [3], binding was characterised by a dissociation constant (Kd) of 1.66 nM, the off-rate constant (koff) was 0.00037 s⁻¹ and the kon worked out at 223000 M⁻¹ s⁻¹. Moreover, the midpoint of the response in assay [8], the EC50, lay at 0.746 nM. The molecule also showed a 50% effective concentration (EC50) in assay [6] of 0.0915 nM.

B6: ABTIM3 analog (antibody, human IgG4 S228P, kappa, V domains shown)
VH: QVQLVQSGAEVKKPGASVKVSCKASGYTFTSYNMHWVRQAPGQGLEWIGDIYPGSGDTSYNQKFKGRATMTADKSTSTVYMELSSLRSEDTAVYYCARVGGAFPMDYWGQGTLVTVSS
VL: DIVLTQSPDSLAVSLGERATINCRASESVEYYGTSLMQWYQQKPGQPPKLLIYAASNVESGVPDRFSGSGSGTDFTLTISSLQAEDVAVYYCQQSRKDPSTFGGGTKVEIKR
For the molecule B6, the “EC50 (read off the curve)” value in assay [1] is approximately 0.08 nM. In addition, the EC50 in assay [8] worked out at 0.543 nM. For the same molecule, the half-maximal inhibitory concentration (IC50) in assay [2] stood at 5.87 nM.

B7: anti-TIM-3 antibody TIM3-11 (antibody, human IgG4 S228P, lambda, V domains shown)
VH: QVQLQQSGPGLVKPSQTLSLTCAISGDSVSSNSAAWNWIRQSPSRGLEWLGRTYYRSKWYNDYAVSVKSRITINPDTSKNQFSLQLNSVTPEDTAVYYCARDQAAGFPQPYIYGMDVWGKGTMVTVSS
VL: LPVLTQPPSVSKGLRQTATLTCTGNSNNVGNQGAAWLQQHQGHPPKLLTYRTNNRPSGISERFSASRSGNTASLTITGLQPEDEADYYCSGWDSSLNEGVFGGGTKLTVLG
notes: Full-length IgG
For B7, the EC50 in assay [6] was determined as 5.08 nM. Also, the half-inhibitory concentration (IC50) in assay [2] is 3.56 nM.
